From patent US20030040043A1 (published 2003)
Positions count from the first letter of the chain named. Names may count otherwise.

B1: GAL4ad-FtsZ^D373G fusion (pGAD424) (other)
chain: MFEPMELTNDAVIKVIGVGGGGGNAVEHMVRERIEGVEFFAVNTDAQALRKTAVGQTIQIGSGITKGLGAGANPEVGRNAADEDRDALRAALEGADMVFIAAGMGGGTGTGAAPVVAEVAKDLGILTVAVVTKPFNFEGKKRMAFAEQGITELSKHVDSLITIPNDKLLKVLGRGISLLDAFGAANDVLKGAVQGIAELITRPGLMNVDFADVRTVMSEMGYAMMGSGVASGEDRAEEAAEMAISSPLLEDIDLSGARGVLVNITAGFDLRLDEFETVGNTIRAFASDNATVVIGTSLDPDMNDELRVTVVATGIGMDKRPEITLVTNKQVQQPVMDRYQQHGMAPLTQEQKPVAKVVNDNAPQTAKEPDYLGIPAFLRKQAD
notes: also called pGAD424-FtsZ^D373G; SHp201
B2: GAL4ad-FtsZ^D373G,P375L fusion (pGAD424) (other)
chain: B1 chain with P375L
notes: also called pGAD424-FtsZ^D373G,P375L; SHp203

Biological target: T1, GAL4bd-FtsA fusion (E. coli, UniProt P04386 1-147; P0ABH0 1-420)
T1 construct: also called pAS2-1-FtsA; SHp100
Experiment: yeast two-hybrid, GAL4 system, plates lacking histidine and AT

Binder	binding result
B1	no binding
B2	no binding
